Positions count from the first letter of the chain named.
T1: Human PTK7 Protein, His Tag (Acro Biosystems) (human, UniProt Q13308 31-704)
T1 construct: Bought His-tagged protein; also called CCK4; not shown: His tag
T1 sequence: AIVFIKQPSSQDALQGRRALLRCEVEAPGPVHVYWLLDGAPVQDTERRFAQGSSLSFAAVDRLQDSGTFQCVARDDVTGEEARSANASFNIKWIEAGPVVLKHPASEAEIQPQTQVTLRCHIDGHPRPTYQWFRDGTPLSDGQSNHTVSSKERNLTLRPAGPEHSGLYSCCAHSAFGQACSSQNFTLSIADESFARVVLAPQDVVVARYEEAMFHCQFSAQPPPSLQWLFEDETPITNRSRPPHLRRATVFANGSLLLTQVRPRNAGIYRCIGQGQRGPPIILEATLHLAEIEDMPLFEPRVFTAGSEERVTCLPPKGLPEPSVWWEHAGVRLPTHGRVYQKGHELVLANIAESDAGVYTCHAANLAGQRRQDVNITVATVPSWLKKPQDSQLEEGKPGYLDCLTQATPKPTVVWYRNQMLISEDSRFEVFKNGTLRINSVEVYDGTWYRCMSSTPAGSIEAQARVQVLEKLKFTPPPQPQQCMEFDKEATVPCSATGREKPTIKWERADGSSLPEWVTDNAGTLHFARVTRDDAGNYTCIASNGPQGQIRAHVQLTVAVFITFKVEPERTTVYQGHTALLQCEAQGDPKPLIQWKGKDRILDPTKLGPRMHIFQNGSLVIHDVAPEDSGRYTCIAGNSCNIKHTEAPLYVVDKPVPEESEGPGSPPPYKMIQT

B1: MYT11027 (antibody, V domains shown)
VH: EVQLVESGGGLVQPGGSLRLSCTASHLSLSSYWMSWVRQAPGKGLEWVGVISAGGNTYYANWAKGRFTISRDTSKNTVYLQMNSLRAEDTAVYFCARGDDGYTNAAYVSNLWGQGTLVTVSS
VL: EIVMTQSPSTLSASVGDRVIITCQASQSISSWLSWYQQKPGKAPKLLIYKASTLASGVPSRFSGSGSGAEFTLTISSLQPDDFATYYCQSYFDSTTIAFGQGTKLTVL
notes: MYT9361 HC variant
B2: MYT11071 (antibody, V domains shown)
VH: B1 VH with H26G, D100A
VL: B1 VL
notes: MYT9361 HC alanine variant
B3: MYT11047 (antibody, V domains shown)
VH: B1 VH with H26G, A60H
VL: B1 VL
notes: MYT9361 HC variant
B4: MYT11042 (antibody, V domains shown)
VH: B1 VH with H26G, G55H
VL: B1 VL
notes: MYT9361 HC variant
B5: MYT11031 (antibody, V domains shown)
VH: B1 VH with H26G, S30H
VL: B1 VL
notes: MYT9361 HC variant
B6: MYT11060 (antibody, V domains shown)
VH: B1 VH with H26G, T103H
VL: B1 VL
notes: MYT9361 HC variant
B7: MYT11075 (antibody, V domains shown)
VH: B1 VH with H26G
VL: B1 VL with Q27H
notes: MYT9361 LC variant
B8: MYT11032 (antibody, V domains shown)
VH: B1 VH with H26G, S31H
VL: B1 VL
notes: MYT9361 HC variant
B9: MYT11036 (antibody, V domains shown)
VH: B1 VH with H26G, S35H
VL: B1 VL
notes: MYT9361 HC variant
B10: MYT11067 (antibody, V domains shown)
VH: B1 VH with H26G, N110H
VL: B1 VL
notes: MYT9361 HC variant
B11: MYT11051 (antibody, V domains shown)
VH: B1 VH with H26G, K64H
VL: B1 VL
notes: MYT9361 HC variant
B12: MYT11037 (antibody, V domains shown)
VH: B1 VH with H26G, V50H
VL: B1 VL
notes: MYT9361 HC variant
B13: MYT11035 (antibody, V domains shown)
VH: B1 VH with H26G, M34H
VL: B1 VL
notes: MYT9361 HC variant
B14: MYT11039 (antibody, V domains shown)
VH: B1 VH with H26G, S52H
VL: B1 VL
notes: MYT9361 HC variant
B15: MYT11064 (antibody, V domains shown)
VH: B1 VH with H26G, Y107H
VL: B1 VL
notes: MYT9361 HC variant
B16: MYT11041 (antibody, V domains shown)
VH: B1 VH with H26G, G54H
VL: B1 VL
notes: MYT9361 HC variant
B17: MYT11074 (antibody, V domains shown)
VH: B1 VH with H26G
VL: B1 VL with S26H
notes: MYT9361 LC variant
B18: MYT11030 (antibody, V domains shown)
VH: B1 VH with H26G, L29H
VL: B1 VL
notes: MYT9361 HC variant
B19: MYT11057 (antibody, V domains shown)
VH: B1 VH with H26G, D100H
VL: B1 VL
notes: MYT9361 HC variant
B20: MYT11038 (antibody, V domains shown)
VH: B1 VH with H26G, I51H
VL: B1 VL
notes: MYT9361 HC variant
B21: MYT11034 (antibody, V domains shown)
VH: B1 VH with H26G, W33H
VL: B1 VL
notes: MYT9361 HC variant
B22: MYT11040 (antibody, V domains shown)
VH: B1 VH with H26G, A53H
VL: B1 VL
notes: MYT9361 HC variant
B23: MYT11052 (antibody, V domains shown)
VH: B1 VH with H26G, G65H
VL: B1 VL
notes: MYT9361 HC variant
B24: MYT11066 (antibody, V domains shown)
VH: B1 VH with H26G, S109H
VL: B1 VL
notes: MYT9361 HC variant
B25: MYT11029 (antibody, V domains shown)
VH: B1 VH with H26G, S28H
VL: B1 VL
notes: MYT9361 HC variant
B26: MYT11061 (antibody, V domains shown)
VH: B1 VH with H26G, N104H
VL: B1 VL
notes: MYT9361 HC variant
B27: MYT11072 (antibody, V domains shown)
VH: B1 VH with H26G
VL: B1 VL with Q24H
notes: MYT9361 LC variant
B28: MYT11045 (antibody, V domains shown)
VH: B1 VH with H26G, Y58H
VL: B1 VL
notes: MYT9361 HC variant
B29: MYT11043 (antibody, V domains shown)
VH: B1 VH with H26G, N56H
VL: B1 VL
notes: MYT9361 HC variant
B30: MYT11073 (antibody, V domains shown)
VH: B1 VH with H26G
VL: B1 VL with A25H
notes: MYT9361 LC variant
B31: MYT11055 (antibody, V domains shown)
VH: B1 VH with H26G, G98H
VL: B1 VL
notes: MYT9361 HC variant
B32: MYT11048 (antibody, V domains shown)
VH: B1 VH with H26G, N61H
VL: B1 VL
notes: MYT9361 HC variant
B33: MYT11044 (antibody, V domains shown)
VH: B1 VH with H26G, T57H
VL: B1 VL
notes: MYT9361 HC variant
B34: MYT11028 (antibody, V domains shown)
VH: B1 VH with H26G, L27H
VL: B1 VL
notes: MYT9361 HC variant
B35: MYT11062 (antibody, V domains shown)
VH: B1 VH with H26G, A105H
VL: B1 VL
notes: MYT9361 HC variant
B36: MYT11050 (antibody, V domains shown)
VH: B1 VH with H26G, A63H
VL: B1 VL
notes: MYT9361 HC variant
B37: MYT11046 (antibody, V domains shown)
VH: B1 VH with H26G, Y59H
VL: B1 VL
notes: MYT9361 HC variant
B38: MYT11065 (antibody, V domains shown)
VH: B1 VH with H26G, V108H
VL: B1 VL
notes: MYT9361 HC variant
B39: MYT11049 (antibody, V domains shown)
VH: B1 VH with H26G, W62H
VL: B1 VL
notes: MYT9361 HC variant
B40: MYT11054 (antibody, V domains shown)
VH: B1 VH with H26G, R97H
VL: B1 VL
B41: MYT11070 (antibody, V domains shown)
VH: B1 VH with H26G, D99A
VL: B1 VL
notes: MYT9361 HC alanine variant

Biological target: T1, Human PTK7 Protein, His Tag (Acro …)
Experiment: BLI (Octet), antibody on anti-human Fc sensor, 50 nM PTK7; grade 2 = substantially similar binding relative to parent

Binder	binding result
B1	binds
B2	binds
B3	binds
B4	binds
B5	binds
B6	binds
B7	binds
B8	binds
B9	binds
B10	binds
B11	binds
B12	binds
B13	binds
B14	binds
B15	binds
B16	binds
B17	binds
B18	binds
B19	binds
B20	binds
B21	binds

Binder	binding result
B22	binds
B23	binds
B24	binds
B25	binds
B26	binds
B27	binds
B28	binds
B29	binds
B30	binds
B31	binds
B32	binds
B33	binds
B34	binds
B35	binds
B36	binds
B37	binds
B38	binds
B39	binds
B40	binds
B41	binds
